Assay results published in article PMC3299731 (PLoS ONE, 2012).

How the values were obtained:
[1] = biological target: T1, translin (untagged, co-expressed);TRAX (human;human, UniProt Q15631;Q99598 1-228;1-290, |); test: UV-laser crosslinking (248 nm); DNA covalently linked to TRAX subunit; silver stain; 25 mM Tris-HCl pH 8.0, 100 mM NaCl, 1 mM EDTA, 30 min; temperature not stated; 4.5% native PAGE in 0.5x TBE; details: protein: recombinant;recombinant; tags: none;N-terminal 6xHis
[2] = biological target: translin (untagged, co-expressed);TRAXB2 (human;human, UniProt Q15631;Q99598 1-228;1-290, |Q115L;H117N;R118A); test: EMSA; 100 nM complex, 100 nM DNA; 25 mM Tris-HCl pH 8.0, 100 mM NaCl, 1 mM EDTA, 30 min; temperature not stated; 4.5% native PAGE in 0.5x TBE; details: protein: recombinant;recombinant; tags: none;N-terminal 6xHis; label: 5'-32P (unlabeled in agarose EMSA)
[3] = biological target: T1, translin (untagged, co-expressed);TRAX; test: as above; details: protein: recombinant;recombinant; tags: none;N-terminal 6xHis; label: 5'-32P (unlabeled in agarose EMSA)
[4] = biological target: translinB2 (untagged, co-expressed);TRAX (human;human, UniProt Q15631;Q99598 1-228;1-290, R86T;H88N;H90N|); test: as above; details: protein: recombinant;recombinant; tags: none;N-terminal 6xHis; label: 5'-32P (unlabeled in agarose EMSA)
translinB2 (untagged, …) = biological target: translinB2 (untagged, co-expressed);TRAXB2 (human;human, UniProt Q15631;Q99598 1-228;1-290, R86T;H88N;H90N|Q115L;H117N;R118A); test: as above; details: protein: recombinant;recombinant; tags: none;N-terminal 6xHis; label: 5'-32P (unlabeled in agarose EMSA)
[5] = biological target: translinB3 (untagged, co-expressed);TRAX (human;human, UniProt Q15631;Q99598 1-228;1-290, R192T;K193N;R194S;Y195N|); test: EMSA; 100 nM complex, 200 nM DNA; 25 mM Tris-HCl pH 8.0, 100 mM NaCl, 1 mM EDTA, 30 min; temperature not stated; 4.5% native PAGE in 0.5x TBE; details: protein: recombinant;recombinant; tags: none;N-terminal 6xHis; label: 5'-32P (unlabeled in agarose EMSA)
translinB3 (untagged, …) [6] = biological target: translinB3 (untagged, co-expressed);TRAXB2 (human;human, UniProt Q15631;Q99598 1-228;1-290, R192T;K193N;R194S;Y195N|Q115L;H117N;R118A); test: as above; details: protein: recombinant;recombinant; tags: none;N-terminal 6xHis; label: 5'-32P (unlabeled in agarose EMSA)
translinB3 (untagged, …) [7] = biological target: translinB3 (untagged, co-expressed);TRAXB3 (human;human, UniProt Q15631;Q99598 1-228;1-290, R192T;K193N;R194S;Y195N|K241N;K242T;Y244N); test: as above; details: protein: recombinant;recombinant; tags: none;N-terminal 6xHis; label: 5'-32P (unlabeled in agarose EMSA)
[8] = biological target: T1, translin (untagged, co-expressed);TRAX; test: UV-laser crosslinking (248 nm); DNA covalently linked to TRAX subunit; 25 mM Tris-HCl pH 8.0, 100 mM NaCl, 1 mM EDTA, 30 min; temperature not stated; 4.5% native PAGE in 0.5x TBE; details: protein: recombinant;recombinant; tags: none;N-terminal 6xHis; label: 5'-32P (unlabeled in agarose EMSA)
translinB3 = translinB3 (human, UniProt Q15631 1-228, R192T;K193N;R194S;Y195N); test: EMSA; 100 nM octamer, 200 nM labeled DNA; 25 mM Tris-HCl pH 8.0, 100 mM NaCl, 1 mM EDTA, 30 min; temperature not stated; 4.5% native PAGE in 0.5x TBE; details: protein: recombinant; tags: N-terminal 6xHis; chain copies: 8; label: 5'-32P (unlabeled in agarose EMSA)
Sequence of translinB3 (Q15631 whole entry R192T/K193N/R194S/Y195N): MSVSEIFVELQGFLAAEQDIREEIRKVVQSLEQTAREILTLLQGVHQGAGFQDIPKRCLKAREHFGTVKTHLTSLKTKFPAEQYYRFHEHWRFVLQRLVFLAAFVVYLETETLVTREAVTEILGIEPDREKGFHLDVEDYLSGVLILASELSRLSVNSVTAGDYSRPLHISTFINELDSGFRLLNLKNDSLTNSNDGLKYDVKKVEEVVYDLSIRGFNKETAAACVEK

T1 sequence (Q15631 whole entry, chain 1 of 2): as the sequence (Q15631 whole entry R192T/K193N/R194S/Y195N) above, with T192R, N193K, S194R, N195Y counted along it
T1 sequence (Q99598 whole entry, chain 2 of 2): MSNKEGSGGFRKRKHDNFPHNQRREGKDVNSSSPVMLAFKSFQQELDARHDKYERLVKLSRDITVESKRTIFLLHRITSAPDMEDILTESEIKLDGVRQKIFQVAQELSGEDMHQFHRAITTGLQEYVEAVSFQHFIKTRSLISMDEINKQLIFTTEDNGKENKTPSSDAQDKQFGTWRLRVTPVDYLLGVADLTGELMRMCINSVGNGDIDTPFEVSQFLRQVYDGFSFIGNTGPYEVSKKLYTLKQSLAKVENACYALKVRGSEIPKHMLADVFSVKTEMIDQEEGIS
Sequence of translinB2 (untagged, co-expressed);TRAX (Q15631 whole entry R86T/H88N/H90N, chain 1 of 2): as the sequence (Q15631 whole entry R192T/K193N/R194S/Y195N) above, with R86T, H88N, H90N, T192R, N193K, S194R, N195Y counted along it
Sequence of translinB2 (untagged, co-expressed);TRAX (Q99598 whole entry, chain 2 of 2): as the sequence (Q99598 whole entry, chain 2 of 2) above
Sequence of translinB2 (untagged, co-expressed);TRAXB2 (Q15631 whole entry R86T/H88N/H90N, chain 1 of 2): as the sequence (Q15631 whole entry R192T/K193N/R194S/Y195N) above, with R86T, H88N, H90N, T192R, N193K, S194R, N195Y counted along it
Sequence of translinB2 (untagged, co-expressed);TRAXB2 (Q99598 whole entry Q115L/H117N/R118A, chain 2 of 2): as the sequence (Q99598 whole entry, chain 2 of 2) above, with Q115L, H117N, R118A counted along it
Sequence of translinB3 (untagged, co-expressed);TRAXB3 (Q15631 whole entry R192T/K193N/R194S/Y195N, chain 1 of 2): as the sequence (Q15631 whole entry R192T/K193N/R194S/Y195N) above
Sequence of translinB3 (untagged, co-expressed);TRAXB3 (Q99598 whole entry K241N/K242T/Y244N, chain 2 of 2): as the sequence (Q99598 whole entry, chain 2 of 2) above, with K241N, K242T, Y244N counted along it
Sequence of translinB3 (untagged, co-expressed);TRAXB2 (Q15631 whole entry R192T/K193N/R194S/Y195N, chain 1 of 2): as the sequence (Q15631 whole entry R192T/K193N/R194S/Y195N) above
Sequence of translinB3 (untagged, co-expressed);TRAXB2 (Q99598 whole entry Q115L/H117N/R118A, chain 2 of 2): as the sequence (Q99598 whole entry, chain 2 of 2) above, with Q115L, H117N, R118A counted along it
Sequence of translinB3 (untagged, co-expressed);TRAX (Q15631 whole entry R192T/K193N/R194S/Y195N, chain 1 of 2): as the sequence (Q15631 whole entry R192T/K193N/R194S/Y195N) above
Sequence of translinB3 (untagged, co-expressed);TRAX (Q99598 whole entry, chain 2 of 2): as the sequence (Q99598 whole entry, chain 2 of 2) above
Sequence of translin (untagged, co-expressed);TRAXB2 (Q15631 whole entry, chain 1 of 2): as the sequence (Q15631 whole entry R192T/K193N/R194S/Y195N) above, with T192R, N193K, S194R, N195Y counted along it
Sequence of translin (untagged, co-expressed);TRAXB2 (Q99598 whole entry Q115L/H117N/R118A, chain 2 of 2): as the sequence (Q99598 whole entry, chain 2 of 2) above, with Q115L, H117N, R118A counted along it

| Binder | binding result [1] | binding result [2] | binding result [3] | binding result [4] | binding result (translinB2 (untagged, …)) | binding result [5] | binding result (translinB3 (untagged, …) [6]) | binding result (translinB3 (untagged, …) [7]) | binding result [8] | binding result (translinB3) |
| --- | --- | --- | --- | --- | --- | --- | --- | --- | --- | --- |
| CCTGTAGTAATGGCTGCATTGAACAGATGCATATCTTCCCCTG (ssDNA) [43-mer (trxB2 reverse primer)] | binds | – | – | – | – | – | – | – | – | – |
| GCCCTCCTGCCCTCCTTCCGCGGG (ssDNA) [Bcl-CL1 24-mer] | – | binds | binds | binds | binds | no binding | no binding | no binding | binds | no binding |
